{"source": "the DeepSol protein solubility set"}
{"assay": "soluble on expression in E. coli; label from the status in PepcDB or PDB records"}
{"sequence": "MSGKNEADSKDTGWEQIKDKGKIVVATSGTLYPTSYHDTDSGSDKLTGYEVEVVREAAKRLGLKVEFKEMGIDGMLTAVNSGQVDAAANDIDVTKDREEKFAFSTPYKYSYGTAIVRKDDLSGIKTLKDLKGKKAAGAATTVYMEVARKYGAKEVIYDNATNEQYLKDVANGRTDVILNDYYLQTLALAAFPDLNITIHPDIKYMPNKQALVMKKSNAALQKKMNEALKEMSKDGSLTKLSKQFFNKADVSKKIDADVQDVDLLEHHHHHH", "soluble on expression in E. coli": "soluble"}
{"sequence": "MSGKVVRPSAALLEVFKSWQGGAIRVQRNEKLKTRLDVILDRPEKNNCLSGEMMKQFGEHTELFSDDQNAIIVVSGVGKSFCSGADLGLIKDISDQKLGVQMFEYMSSILSLLHSSPAISIAKIHGHALGGATEICSSTDIRIAHSGSKIAFFQSKMGIVPSWGGAEYMEGIMGRGRALAAMGRANVMSAEEAKDQGYVDYVYKSEDEAENFINQVASAGLKVTRAQKAMLNAVKIGKTEQKQVLEAVWNGETHRNALQKQLEAVVKK", "soluble on expression in E. coli": "not soluble"}
{"sequence": "MSGLQGKIADAVKARGYQIMTSPDKAYYWIQANVLKADKMDLRESQGWLSRGYEGAAVGAALGGGITAYNTGSAGTTLGVGLATGLIGMAADAMVEDINYTMITDVQIAERTRTSVRTDNVAALRQGTSGSKIQTSTETGNQHKYQTRVVSSANQVNLKFEEAKPHLEDQLAKSIANIL", "soluble on expression in E. coli": "not soluble"}
{"sequence": "MSGSYDEASEEITDSFWEVGNYKRTVKRIDDGHRLCNDLMSCVQERAKIEKAYAQQLTDWAKRWRQLIEKGPQYGSLERAWGAMMTEADKVSELHQEVKNSLLNEDLEKVKNWQKDAYHKQIMGGFKETKEAEDGFRKAQKPWAKKMKELEAAKKAYHLACKEERLAMTREMNSKTEQSVTPEQQKKLVDKVDKCRQDVQKTQEKYEKVLEDVGKTTPQYMEGMEQVFEQCQQFEEKRLVFLKEVLLDIKRHLNLAENSSYMHVYRELEQAIRGADAQEDLRWFRSTSGPGMPMNWPQFEEWNPDLPHTTAKKEKQPKKAEGATLSNATGAVESTSQAGDRGSVSSYDRGQTYATEWSDDESGNPFGGNEANGGANPFEDDAKGVRVRALYDYDGQEQDELSFKAGDELTKLGEEDEQGWCRGRLDSGQLGLYPANYVEAI", "soluble on expression in E. coli": "soluble"}
{"sequence": "MSGVRMIDRWEEDNKMFLRLYIKERVLPTIYGSILGDLVGVPVEFKKRGSFFVEDIIGYGTYNQPAGTWSDDTSLTLCLIENIVEEGTIKSLMEKFVNYQDKGYMTPYGQMFDIGGATAQAIGRFKAGCLPQNCGGQSEYDNGNGAIMRISPLAFLFDNEFDFVKKAEVIKQYTEITHAHPRAIVGSIIYIELLLRLYHNNTLEKSIKDILDLFEENFPKNHIYMDEFKYYKRIFDSNFFNVPEEQILSDGYVVHTLEAAIWCVGNTKNFKEAILKAVNLGGDTDTVGVITGAIAGMYYKMDEIPQDWLNKIAKKQDIDELINKFYKYCADKAVIEKYGSL", "soluble on expression in E. coli": "not soluble"}
{"sequence": "MSHAIQIREAHFPGRAPIDAYGNGGFRFADMSHRGSIICIPSGIYGIDMTGPVPTQEDISRVLEESDQIEVLLIGTGVELLRLPEELRVLLWEKRISSDTMSTGAAVRTFNVLLAEDRAVAALLFAVE", "soluble on expression in E. coli": "soluble"}
{"sequence": "MSHHHHHHAGIFTFEEPVTHVSESIGIMEVKVLRTSGARGNVIVPYKTIEGTARGGGEDFEDTCGELEFQNDEIVKIITIRIFDREEYEKECSFSLVLEEPKWIRRGMKGGFTITEEYDDKQPLTSKEEEERRIAEMGRPILGEHTKLEVIIEESYEFKSTVD", "soluble on expression in E. coli": "soluble"}
{"sequence": "MSHIRVAFAPLDTNPSTCGLETFATQIETLSQMMTAEEMKAELYDCVRRILREQKFDQIRENEAMLRLYKVMGRSSTNLKGRGIYEQLFKKDHFTGSLKFYLQWAEECGKDQMLEEFKDVLKLARDRLSERIEMTAIESGFRDLVDEYFNGESGDMFTRPDETMDLFRFNAGSKKKRRSSVCFLQHNVPINNSGKAAFGPKTKTDLRQACIDRPNYHGISIEEFRFAKWKDTFGEDVDDDYRKRKDSGVVFVKHQVIDTDRQAREEVENRFNANLNPRRRHLSPVSEKTVDDEEEKRSRIYSPLVATKDAHRPALRSKIENPPATVTLSSDTKSASEKDVSDSDDADDDERLKIMTAGRKDGNPPDRSTSISSNYSTASARTSKSGAGLDLMAENKCLEAHAMFSDTVHLASEKTMVLGDDSVFVPERSLATTQIVTDFSVLCDPDPTMTITQERPKKVSNGLNVVYDEAAEPEESQKVEESEVQPEIVLVSPVTQTSPATMFNDIYDDEIEFGFFKPSRGNFVTSTPAQGVHLVNIDEYFGNKEEESTHEQEAPVFVAPTSSTFSKLTRRKSLAANQAVQPSVTESSKPERSDPKDSSIDCLTANLGRRLSIGADEIPNLTENNESEITGCKIRRRSEIIKQGDINPWDETLRKKLMCLVRPPQNMHEFQERAPKIQALRDCEVSGEKLHIQTLIGQGGYAKVYRAVTDDQRTVAVKYEVPSCSWEVYICDQMRNRLKDRGLELMAKCCIMEVMDAYVYSTASLLVNQYHEYGTLLEYANNMKDPNWHITCFLITQMARVVKEVHASKIIHGDIKPDNFMITRKIDDKWGKDALMSNDSFVIKIIDWGRAIDMMPLKNQRFKGRAGTEAFDCPEMVDGRSWTYQADYFGFAATMAVVVAGKYAQLTGASVGDYSLNVDIKRRNILRDACYDVINRFLNIPSCDSLPDWNILIKSFSEIWNEKFEASGWRQAVSKFNEACDLAANQK", "soluble on expression in E. coli": "not soluble"}
{"sequence": "MSHQCSLSELNENLVPFTARQIKSSLIWCAEDVRNPDELQNACSYIIDPGSTASAKVFHAERYGGSGIQRNGGGARCGFDGNYQVKGIGSNPLVGEGTDERHSNGALGAVHAIYEALWGEVLAQILPYSAVRVRAVLLTDLYTEKAFERSGRKSRRALLVREPVVRPAHFERAPYFQVKPEYSSLLIHDACRVRSVIHKLPGYLPVPPEEIDAEARTDPRIYCIEGLCELARREAWQMAFCRTRFLRLTTSPSNIAMDGRLMDFNGLSCLFPGDSPADFGYKLRLAELAKEPMVLMQGLSDLCLYIGKYMFDPDFTLAARLKVEEIFQKTFHEACYYCYLELLGIPGEFITQKEIPDILKELVNSFVALLNKYYEKSHAQDIVNQDGSPLQKLVVTLIHHRHNQKQALNSSIKNDVYFTVAQQCFSQAIHWLTQGSTRRQINASLLLKEIEHHTMKRLQPREELRKENMCEKIAILLDNHGDDPLFLQEAISDMKNFMLKFSRDAFGYLEPIRNTV", "soluble on expression in E. coli": "not soluble"}
{"sequence": "MSHVNQAVSCIFCYFQEMSFVCGISGELTEDPVVSQVSGHIFDRRLIVKFIAENGTDPISHGELSEDQLVSLKSGGTGSAPRNVSGTSIPSLLKMLQDEWDTVMLNSFSLRQQLQIARQELSHSLYQHDAACRVISRLSKELTAAREALSTLKPHTSAKVDDDVSIDESEDQQGLSEAILAKLEEKSKSLTAERKQRGKNLPEGLAKTEELAELKQTASHTGIHSTGTPGITALDIKGNLSLTGGIDKTVVLYDYEKEQVMQTFKGHNKKINAVVLHPDNITAISASADSHIRVWSATDSSSKAIIDVHQAPVTDISLNASGDYILSASDDSYWAFSDIRSGKSLCKVSVEPGSQIAVHSIEFHPDGLIFGTGAADAVVKIWDLKNQTVAAAFPGHTAAVRSIAFSENGYYLATGSEDGEVKLWDLRKLKNLKTFANEEKQPINSLSFDMTGTFLGIGGQKVQVLHVKSWSEVVSLSDHSGPVTGVRFGENARSLVTCSLDKSLRVFSF", "soluble on expression in E. coli": "not soluble"}
{"sequence": "MSIATQEFDAIVIGAGGAGLRASFQLSQSGFKTAVVSKVFPTRSHTVAAQGGIAAALGNIEFDDGLPSDDWKWHMYDTVKGSDYIGDQDAIEYMCEHAPQSIIELEHMGMPFSRLKNGKIYQRAFGGMSRNYDPANQAERTCAAADRTGHALLHTLYQGNLAHKTDFYTEWFAVDLVKADDGSIAGVIALCIETGETVFLKAKITILATGGAGRIYESSTNAYINTGDGMGLALRAGLPLQDMEFWQFHPTGIAGAGVLVTEGCRGEGGVLRNKDGERFMERYAPNAKDLACRDVVSRASQQEIMEGRGDTFSGTSCVWLDLTHLGEDVINERLPTVRELGRTFAGIDPVEKPIPVVPTCHYQMGGIPTNKHGQVITQVDGKDKVIGGLYAVGECASVSVHGANRLGSNSLLDLVVFGRAAGMHAEQSLKEGMPMKEVSQENIEKATARITKWDTSEQRGCKEKISELRKELQRVMQQYFSVFRQESTMKEGLDKLFNIRERLDNAVLEDNSRIFNMMRIEALELDNLVLTAIATAKLALERKESRGAHSRVDYPERDDKNWMKHTLYFLEGDRTSLRDVNMSPTKVKAFQPAERKY", "soluble on expression in E. coli": "not soluble"}
{"sequence": "MSIDMHCHLDLYPRPDLVAEESKRRGTYILSVTTTPKAWHGTSLLAKESQRIRTALGLHPQIAHQRSHELDLFDSLLSETKYVGEIGLDGGQGFKEHWDIQLKVFRHILNSVNRAGGKIMTIHSRGSASAVLDEIENIDGVAILHWFTGTPKQLERAIDLGCWFSVGPAMLDTIKGKALVLKIPKSRILTETDGPFAKFRNDPLMPWDSGIAEKQLAALWGISQMEVNAQLVDNFKVLCTS", "soluble on expression in E. coli": "soluble"}
{"sequence": "MSIESSATPTTPNAEALQLNSTEVRILGCLIEKQATNPETYPLTLNALVIACNQKTSRDPVMNLTQGQVGQSLRALEGRGLTRLVMGSRADRWEHKVDKGLELVPAQVILTGLLLLRGPQTVSELLTRSNRMHDFEDSEQVVHQLERLIARGLATLVPRQSGQREDRYMHLIGDPEDLQD", "soluble on expression in E. coli": "soluble"}
{"sequence": "MSIMDVQHVAQFYQQLDKSQLHRLIEIYHPDVVFEDAAHRIEGFDALYQYFLNLYQNVHTCTFTIHEQYAVNEGAFLVWTMHLRHPKLAKGEQVDVKGVSHLHFAEGKVTYHRDYFDMGEMLYEQLPVLGQVIRAIKRRLGQ", "soluble on expression in E. coli": "not soluble"}
{"sequence": "MSITINKLEIENVKRIKAVKIEPSATGLTIIGGNNNQGKTSVLDAIAWALGGNKYKPSQAMREGSQVPPTLKITMSNGLIVERKGKNASLKVIDPNGQKGGQQLLDSFVEELAINLPKFMDSTPKEKADVLLEIIGVGDQLAELELKEKEIYNQRHAIGVIADQKEKFAKEMTYYPDAPKQLVSISELIQQHQAILAKNGENAQKRQNVERIRYDYNQSILEVDRLRKLLADAEAKTNKLSEDLKIANTDAMDLHDESTAEIEANIADIDEVNRKVRANFDKDKAEEDAKQQREQYNILTNDIESIRQQKRDLLINADLPLEGLSVDDGKLLYLGQEWDNMSGSQQLIVATAIVRKLKPDCGFVLIDKLEQMDNITLEQFGKRLEQEGLQAIATRVSIGEECAIIIEDGYSVENKAHNFKTAEGGNFAETVAPTWKGEF", "soluble on expression in E. coli": "not soluble"}
{"sequence": "MSITPHRLPVAPVIVREAYLSLLRKGWRPGDRDLKTPRNVKIETGIIEKAEGSALVKLGKTQVIAGVKAGVGAPFKDTPNQGVLTVHAEFVPLASPVFEPGPPDENAIELARVVDRSLREVGAVDLESLVIRPGEKVWVLWVDLYIIDHDGNLFDASMLATMAVLLTARLPRYEESETGEIIISKEGEGEELKVKTRVVTVTTAKIDRYIVVDPNIEEEAVSDVRLVTAVDENGRIVGLQKTGMGSLTEADIETMIGYSLEASKVYFKALEEAIKP", "soluble on expression in E. coli": "soluble"}
{"sequence": "MSIWCAVCNDLKPCEEATQLIPCLHTFCTKCLKKSTKKMRVCPVAHCYSSLTAPEPMTSTCEGENCQRKIMGNAEILRTACHHDICQHCYDLASRKEKSCCPALGCAELMIDEEDMICEGPCKKALVFDKTIVIPCCGARMCDVCGPKWTNGRDFCELGKCVNKESAKRRKSADATRQPCMGSLHCEGEVLRNFPSELECDHDVCIKCIGSMLDECEKNGKSPACPVKTCAIPYRCESVLALDAQFPEKKAFFSKFTLQAKFSMQTLKDDIVTNIIHGDLNTMNGQKFSLKIGQCDDDDGGMPMEFVREGTLGDLVRETRRVLKILPTDKIYGYYRIDDNKKSKLDVTKDTIRSSCSSLNINENTTVLVDTTGIVSRPKKQ", "soluble on expression in E. coli": "not soluble"}
{"sequence": "MSKDEGKRKKESVVDLTRFLDKEIRVKFQGGREASGVLRGFDQLLNMVLDDCREYLRDPQNPSVVGDETRQLGLIVARGTAITVVSPADGLEQIANPFATQEEE", "soluble on expression in E. coli": "not soluble"}
